Experiment [1] deals with Vibrio parahaemolyticus HqsK (VP1876) D499A (Vibrio parahaemolyticus) (UniProt Q87NJ2).
For experiment [2], the target named is Vp HqsK (VP1876 HK; H-NOX-associated quorum sensing kinase) (Vibrio parahaemolyticus, UniProt Q87NJ2). The conditions noted are these: 250 μM OMFP, pH 8.0, room temperature.

Turning to “Vibrio parahaemolyticus H-NOX (VP1877) (from UniProt Q87NJ1 1-179) (natural protein)”, the inhibition of HqsK autophosphorylation ([gamma-32P]-ATP, SDS-PAGE, autoradiography) by Fe(II)-NO H-NOX; 69.4 uM H-NOX, 5.3 uM HqsK D499A, purified proteins, room temperature, anaerobic in experiment [1] turned out to be 75%.

As to `COc1ccc2c(c1)Oc1cc(OP(=O)(O)O)ccc1C21OC(=O)c2ccccc21` (centres unmarked) [3-O-methyl fluorescein phosphate], the “phosphatase assay, O-methylfluorescein release at 450 nm” value in experiment [2] is recorded as “Wild-type HqsK displays increasing OMF fluorescence over time, indicating Vp HqsK has phosphatase activity”.

Source of the values: publication PMC6759604 (Frontiers in Microbiology, 2019).
